Experimental findings from US20200131474A1, “METHODS AND COMPOSITIONS FOR OCULAR CELL THERAPY” (Novartis AG, priority 2018, published 2020) are described below.

One series concerns phospho-YAP (ser127). As to the kind of experiment: Exposure of LSCs to LATS inhibitors, YAP phosphorylation by western blot. The conditions noted are these: 10 micromolar, 1 hour, DMSO as negative control. The class given is cell-based, human. The protocol:
The medium was then replaced by fresh limbal epithelium cell culture medium (DMEM F12 supplemented with 10% human serum and 1.3 mM calcium chloride) supplemented with LATS inhibitor compound example no. […] Cells were cultured under these conditions for 1 hour at 37° C. in 5% CO2.
To measure the effect of the LATS inhibitors on the downstream target YAP, the YAP phosphorylation levels were measured by western blot as follows. The cell pellets were obtained by trypsin dissociation and centrifugation and washed with PBS. The pellets were lysed with 30 microlitres of RIPA lysis buffer containing protease inhibitor cocktail (Life Technologies) for 30 minutes, with vortexing every 10 minutes. The cell debris were then pelleted at 4° C. for 15 minutes at 14 k rpm and the protein lysate was collected. Protein concentration was quantified using a micro BCA kit (Pierce). Fifteen micrograms of total protein was loaded in each well of 4-20% TGX gels (BioRad) and Western blotting was performed according to the manufacturer's instructions. […] Membranes were stained with HRP-conjugated secondary antibodies, rinsed and imaged using a ChemiDoc system (Biorad) according to the manufacturer's instructions.

The subject of a further series is YAP. As to the kind of experiment: Exposure of LSCs to LATS inhibitors, intracellular YAP distribution by immunohistochemistry. Type of series: cell-based, human. The conditions noted are these: 10 micromolar, 24 hours, compared with DMSO control; data not shown. As to the method:
Research-consented cadaveric human corneas were obtained from eye banks. Limbal rims were dissected and partially dissociated in a 1.2 mg/ml dispase solution for 2 hours at 37° C. followed by 10 minutes in TrypLE (Life Technologies). Pieces of limbal crypts were then carefully cut out of the partially dissociated limbal rims and rinsed by centrifugation). Cells obtained in this manner were used in the Examples below.
Cells were cultured under these conditions for 24 hours at 37° C. in 5% CO2.
To measure the effect of the LATS inhibitors on the downstream target YAP, intracellular YAP distribution was analyzed by immunohistochemistry. Cell cultures were fixed with 4% PFA for 20 minutes, permeabilized and blocked in a blocking solution of 0.3% Triton X-100 (Sigma-Aldrich) and 3% donkey serum in PBS for 30 minutes. Cells were then labeled with primary antibody in the blocking solution for 12 hours at 4° C. Primary antibody used was anti-YAP from Santa Cruz Biotechnology. Samples were washed in PBS three times and donkey-raised secondary antibody Alexa Fluor 488 (Molecular Probes) at 1:500 dilution were applied for 30 minutes at room temperature. […] Fluorescence was observed using a Zeiss LSM 880 confocal microscope.

The subject of the next series is limbal stem cells. As to the kind of experiment: Human limbal stem cell population expansion, immunohistochemical observation of p63alpha phenotype. Type of series: cell-based. The conditions noted are these: for colony formation and p63alpha expression: 10 micromolar, 6 days after isolation without passaging, DMSO as negative control. As to the method: Cells were first cultured at 37° C. in 5% CO2 for 6 days after isolation without passaging (FIGS. 2A, 2B and 2C).
To evaluate the ability of the compounds to enable LSC expansion after two passages, LSCs were passaged and cultured for two weeks in the presence of compound example 3 to enable expansion (FIG. 2D). Limbal stem cells (LSCs) were passaged by treating cultures with Accutase for 10 minutes at 37° C., rinsing the cell suspension by centrifugation and plating cells in fresh LSC culture medium supplemented with LATS inhibitor compound example 3.
In order to observe that the expanded cell population expressed p63alpha, this was measured by immunohistochemistry as follows. Cell cultures were fixed with 4% PFA for 20 minutes, permeabilized and blocked in a blocking solution of 0.3% Triton X-100 (Sigma-Aldrich) and 3% donkey serum in PBS for 30 minutes. Cells were then labeled with primary antibody in the blocking solution for 12 hours at 4° C. Primary antibody used was p63alpha from Cell Signalling. Samples were washed in PBS three times and donkey-raised secondary antibody Alexa Fluor 488 (Molecular Probes) at 1:500 dilution were applied for 30 minutes at room temperature. Cells were counter-stained with a human nuclear antigen antibody (Millipore) at a 1:500 dilution in order to label all cells in the culture and confirm their human identity. […] Fluorescence was observed using a Zeiss LSM 880 confocal microscope.

The subject of series [1] is genomic DNA purified from male human peripheral blood mononuclear cells. The series can be described thus: Biochemical method for potential off-target genomic sites cleaved by Cas9 and B2M guides. The conditions noted are these: guide concentration of 64 nM. The source says: A biochemical method (See, e.g., Cameron et al., Nature Methods. 6, 600-606; 2017) was used to determine potential off-target genomic sites cleaved by Cas9 and selected B2M guides.

Series [2] has as its system potential off-target sites. As to the kind of experiment: Off-target activity detection in limbal stem cells by targeted PCR and NGS. Type of series: cell-based, human. The conditions noted are these: edited LSCs vs non-edited PBMCs; positive sites of sequenced loci. As to the method: Potential CRISPR/Cas9-mediated cutting sites identified above were evaluated using targeted PCR and NGS in genome-edited expanded LSCs.
Selected sgRNAs (SEQ ID NO: 120, 162, 166, 167, 171, and 175) were further analyzed by amplicon sequencing in edited and non-edited cells. Primers flanking the potential off-target sites for each guide were used to detect indels by NGS analysis in edited LSCs and non-edited peripheral blood mononuclear cells. Sites that had either (1) a difference in mean indel percentage between edited and unedited cells greater than 0.5%; or (2) a p value less than 0.05 between edited and unedited indel were further analyzed. NGS sequence reads for such sites were assessed for characteristic indel patterns near the putative Cas9 cut site.

In the case of `CC(C)(O)CC(C)(C)Nc1nc(-c2ccncc2)nc2cnccc12` [Example 3, 2,4-dimethyl-4-{[2-(pyridin-4-yl)pyrido[3,4-d]pyrimidin-4-yl]amino}pentan-2-ol], the “YAP phosphorylation levels in human LSCs (Western blot)” value in the series with phospho-YAP (ser127) is on record as “caused a reduction in YAP phosphorylation levels”; with phospho-YAP (ser127) (listed as ex. 3), “induce YAP dephosphorylation”. Moreover, in the series with YAP, the “YAP immunostaining in the nucleus of LSCs” value is recorded as “stronger”. Besides, in the series on limbal stem cells, the “colony formation and p63alpha expression” value was “the cells formed colonies and expressed p63alpha”. Moreover, the “cell population expansion after passaging, p63alpha expression” value in the series on limbal stem cells (passaged and cultured for two weeks in the presence of compound) is “enabled cell population expansion and the formation of confluent cultures expressing p63alpha”.

Turning to `Cc1n[nH]cc1-c1nc(NC2(C)CC2)c2ccncc2n1` [Example 4, 2-(3-methyl-1H-pyrazol-4-yl)-N-(1-methylcyclopropyl)pyrido[3,4-d]pyrimidin-4-amine], the “YAP phosphorylation levels in human LSCs (Western blot)” value is “induce YAP dephosphorylation” in the series with phospho-YAP (ser127) (listed as ex. 4) and “caused a reduction in YAP phosphorylation levels” with phospho-YAP (ser127) (listed as example no. 4). The “YAP immunostaining in the nucleus of LSCs” value with YAP is given as “stronger”. For the same molecule, the “colony formation and p63alpha expression” value in the series with limbal stem cells was “the cells formed colonies and expressed p63alpha”.

B1: 6-HEYJA000001: gRNA targeting B2M; targeting domain GGCCGAGAUGUCUCGCUCCG (SEQ ID NO: 113); sgRNA SEQ ID NO: 164 (nucleic acid)
guide: GGCCGAGAUGUCUCGCUCCGGUUUUAGAGCUAGAAAUAGCAAGUUAAAAUAAGGCUAGUCCGUUAUCAACUUGAAAAAGUGGCACCGAGUCGGUGCUUUU
modifications: listed as RNA, chemistry not given here
For the molecule B1, in series [1], the “off-target Site_Count” value is given as 8.

B2: CR000456: gRNA targeting B2M; targeting domain CUUACCCCACUUAACUAUCU (SEQ ID NO: 139); sgRNA SEQ ID NO: 176 (nucleic acid)
guide: CUUACCCCACUUAACUAUCUGUUUUAGAGCUAGAAAUAGCAAGUUAAAAUAAGGCUAGUCCGUUAUCAACUUGAAAAAGUGGCACCGAGUCGGUGCUUUU
modifications: listed as RNA, chemistry not given here
On to B2, for which the “off-target Site_Count” value in series [1] came out at 66.

B3: CR000455: gRNA targeting B2M; targeting domain UUACCCCACUUAACUAUCUU (SEQ ID NO: 138); sgRNA SEQ ID NO: 175 (nucleic acid)
guide: UUACCCCACUUAACUAUCUUGUUUUAGAGCUAGAAAUAGCAAGUUAAAAUAAGGCUAGUCCGUUAUCAACUUGAAAAAGUGGCACCGAGUCGGUGCUUUU
modifications: listed as RNA, chemistry not given here
Turning to B3, the “Number of sites positive for off-target activity in LSCs” value (“Number of sites positive” below) in series [2] is recorded as “zero”. In addition, the “off-target Site_Count” value in series [1] turned out to be 48.

B4: CR000442: gRNA targeting B2M; targeting domain GGCCACGGAGCGAGACAUCU (SEQ ID NO: 134); sgRNA SEQ ID NO: 171 (nucleic acid)
guide: GGCCACGGAGCGAGACAUCUGUUUUAGAGCUAGAAAUAGCAAGUUAAAAUAAGGCUAGUCCGUUAUCAACUUGAAAAAGUGGCACCGAGUCGGUGCUUUU
modifications: listed as RNA, chemistry not given here
B4: in series [2], the “Number of sites positive” value is “zero”. In series [1], the “off-target Site_Count” value was 29.

B5: CR000453: gRNA targeting B2M; targeting domain CACAGCCCAAGAUAGUUAAG (SEQ ID NO: 137); sgRNA SEQ ID NO: 174 (nucleic acid)
guide: CACAGCCCAAGAUAGUUAAGGUUUUAGAGCUAGAAAUAGCAAGUUAAAAUAAGGCUAGUCCGUUAUCAACUUGAAAAAGUGGCACCGAGUCGGUGCUUUU
modifications: listed as RNA, chemistry not given here
In the case of B5, the “off-target Site_Count” value in series [1] was 82.

B6: 4-CR004366: gRNA targeting B2M (Dharmacon); targeting domain CAGUAAGUCAACUUCAAUGU (SEQ ID NO: 111); sgRNA SEQ ID NO: 162 (nucleic acid)
guide: CAGUAAGUCAACUUCAAUGUGUUUUAGAGCUAGAAAUAGCAAGUUAAAAUAAGGCUAGUCCGUUAUCAACUUGAAAAAGUGGCACCGAGUCGGUGCUUUU
modifications: listed as RNA, chemistry not given here
Regarding B6, the “Number of sites positive” value in series [2] was “zero”. Further, the “off-target Site_Count” value in series [1] amounted to 92.

B7: 8-HEYJA000004: gRNA targeting B2M; targeting domain ACUCACGCUGGAUAGCCUCC (SEQ ID NO: 115 in Table 10, 118 in Table 4); sgRNA SEQ ID NO: 166 (nucleic acid)
guide: ACUCACGCUGGAUAGCCUCCGUUUUAGAGCUAGAAAUAGCAAGUUAAAAUAAGGCUAGUCCGUUAUCAACUUGAAAAAGUGGCACCGAGUCGGUGCUUUU
modifications: listed as RNA, chemistry not given here
For B7, the “Number of sites positive” value in series [2] was “zero”. The “off-target Site_Count” value in series [1] is given as 62.

B8: CR000443: gRNA targeting B2M; targeting domain CGCGAGCACAGCUAAGGCCA (SEQ ID NO: 135); sgRNA SEQ ID NO: 172 (nucleic acid)
guide: CGCGAGCACAGCUAAGGCCAGUUUUAGAGCUAGAAAUAGCAAGUUAAAAUAAGGCUAGUCCGUUAUCAACUUGAAAAAGUGGCACCGAGUCGGUGCUUUU
modifications: listed as RNA, chemistry not given here
With B8, the “off-target Site_Count” value in series [1] is on record as 117.

B9: 9-HEYJA000005: gRNA targeting B2M; targeting domain UCACGUCAUCCAGCAGAGAA (SEQ ID NO: 116); sgRNA SEQ ID NO: 167 (nucleic acid)
guide: UCACGUCAUCCAGCAGAGAAGUUUUAGAGCUAGAAAUAGCAAGUUAAAAUAAGGCUAGUCCGUUAUCAACUUGAAAAAGUGGCACCGAGUCGGUGCUUUU
modifications: listed as RNA, chemistry not given here
With B9, the “Number of sites positive” value in series [2] is recorded as “zero”. Also, the “off-target Site_Count” value in series [1] worked out at 35.

B10: CR000446: gRNA targeting B2M; targeting domain AGGGUAGGAGAGACUCACGC (SEQ ID NO: 136); sgRNA SEQ ID NO: 173 (nucleic acid)
guide: AGGGUAGGAGAGACUCACGCGUUUUAGAGCUAGAAAUAGCAAGUUAAAAUAAGGCUAGUCCGUUAUCAACUUGAAAAAGUGGCACCGAGUCGGUGCUUUU
modifications: listed as RNA, chemistry not given here
B10: the “off-target Site_Count” value in series [1] is reported as 98.
